In publication PMC4352763:

How the values were obtained:
[1] = biological target: UCH-L5_(M148A/F149A) (human)
[2] = biological target: UCH-L5 (full-length, wild type) (human)
Ub-LysGlyTAMRA = Ub-LysGlyTAMRA (UniProt P0CG48); experiment: fluorescence polarisation
[3] = biological target: RPN13 DEUBAD domain (aa 265-388) (human) (UniProt Q16186); experiment: ITC

Chain of UniProt P0CG48 (P0CG48 whole entry, looked up, the tested form may be a part): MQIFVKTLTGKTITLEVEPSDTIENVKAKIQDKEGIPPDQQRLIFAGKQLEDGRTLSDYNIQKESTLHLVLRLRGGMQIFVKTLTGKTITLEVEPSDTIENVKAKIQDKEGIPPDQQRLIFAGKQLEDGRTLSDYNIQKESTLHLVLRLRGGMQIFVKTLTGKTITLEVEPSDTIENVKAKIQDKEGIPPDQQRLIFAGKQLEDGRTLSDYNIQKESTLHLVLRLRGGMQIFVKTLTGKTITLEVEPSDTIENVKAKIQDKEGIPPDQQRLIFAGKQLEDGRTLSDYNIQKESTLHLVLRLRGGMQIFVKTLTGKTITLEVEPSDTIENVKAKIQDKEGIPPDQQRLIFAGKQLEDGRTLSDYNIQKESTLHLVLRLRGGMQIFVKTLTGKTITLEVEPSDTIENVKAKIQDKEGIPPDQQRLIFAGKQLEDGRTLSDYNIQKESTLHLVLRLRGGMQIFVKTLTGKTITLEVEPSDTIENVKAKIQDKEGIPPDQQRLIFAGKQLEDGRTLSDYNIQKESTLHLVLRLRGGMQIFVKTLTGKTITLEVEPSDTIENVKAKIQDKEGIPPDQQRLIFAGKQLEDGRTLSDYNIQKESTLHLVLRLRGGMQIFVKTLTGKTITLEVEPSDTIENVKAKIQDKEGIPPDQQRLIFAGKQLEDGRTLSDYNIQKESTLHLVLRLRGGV

**Q.** “RPN13 DEUBAD domain (aa 265-388) (from UniProt Q16186 265-388) (domain or fragment)” was tested. Which activation of Ub-AMC hydrolysis by the addition of RPN13^DEU [1] did it give?
**A.** 2.7 fold

**Q.** What about the activation of Ub-AMC hydrolysis by the addition of RPN13^DEU [2] of the same substance?
**A.** 7 fold

**Q.** With “UCH-L5 (C88A)/RPN13DEU complex (from UniProt Q9Y5K5-3;Q16186)” as the substance, how does the Kd (Ub-LysGlyTAMRA) read?
**A.** 2300 nM

**Q.** “UCH-L5 (full-length, wild type) (enzyme)” was tested. Which Kd [3] did it give?
**A.** 6 nM
